Experiment [1] has as its target T1, GPVI on human washed platelets (human, UniProt Q9HCN6 21-339).
T1 construct: whole, on cells; also called platelet GPVI
T1 sequence (looked up): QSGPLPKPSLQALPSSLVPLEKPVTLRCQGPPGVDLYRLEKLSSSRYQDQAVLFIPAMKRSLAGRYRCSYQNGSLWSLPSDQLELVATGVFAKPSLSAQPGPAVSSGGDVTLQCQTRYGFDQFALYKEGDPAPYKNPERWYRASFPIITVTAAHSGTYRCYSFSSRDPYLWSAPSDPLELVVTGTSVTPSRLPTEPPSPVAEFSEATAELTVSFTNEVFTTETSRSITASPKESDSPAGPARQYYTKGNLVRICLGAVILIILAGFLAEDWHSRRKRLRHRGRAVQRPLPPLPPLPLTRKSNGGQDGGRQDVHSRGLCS
As to the kind of experiment: flow cytometry on washed platelets, 100 nM Nb28-AF647, with or without 500 nM Nb2. The procedure:
a) Washed platelets were incubated in an aggregometer at 37° C. and 1200 rpm in the presence of Nb28 or PBS control prior to stimulation with 10 μg/ml Horm collagen and aggregation traces captured. Nb28 had no effect on aggregation. b) Thrombin inhibited whole blood was preincubated with either vehicle (PBS) or 500 nM of unlabelled Nb28 and then flowed over fibrillar collagen I utilising the Maastricht flow chamber at 1000/s. None of the five investigated parameters of thrombus formation or platelet activation were affected by Nb28. Each data point represents one donor (n=4), unpaired non-parametric t-test was utilized to test for significance.
Washed platelets were preincubated with 500 nM Nb2 or PBS vehicle control for 10 min, followed by addition of 100 nM Nb28-AF647 and immediate fixation. 50,000 events were acquired and Nb28-AF647 signal (FL4) measured with an Accuri C6 flow cytometer (BD) and data processed with the BD Accuri C6 Software.
In general terms: Flow cytometry measures light scatter and fluorescence of single cells or particles in a stream.

For experiment [2], the target named is T2, recombinant GPVI-Fc (dimeric; D1 and D2 domains of GPVI fused to the Fc domain from IgG) (human, UniProt Q9HCN6 22-203).
T2 construct: range 22-203; also called GPVI-Fcγ; dimeric GPVI; not shown: Factor Xa cleavable junction and Fc domain from IgG (Sigplg+ vector)
T2 sequence (looked up): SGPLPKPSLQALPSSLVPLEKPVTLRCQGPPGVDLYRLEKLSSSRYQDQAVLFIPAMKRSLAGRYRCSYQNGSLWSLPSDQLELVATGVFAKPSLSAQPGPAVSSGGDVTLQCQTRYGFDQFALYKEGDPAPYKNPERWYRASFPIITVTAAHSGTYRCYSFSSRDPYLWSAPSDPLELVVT
As to the kind of experiment: displacement of GPVI-Fc (100 nM) from collagen surface; Nb2 freeze-thawed, day 0. The procedure:
(§1) Freshly made un-tagged nanobody 2 (4.2 mg/ml in PBS) was stored at 4° C. over a period of 72 hours. Samples were collected at 0, 24, 48 and 72 hours for ELISA and nanodrop analysis. 1 ml of Nb2 was also filtered using a Whatman 0.2 um syringe filter, and 50 μL was snap-frozen and thawed to determine the effects of both syringe filtering and freeze-thawing on nanobody function. The freeze-thawed sample was only tested between 0-48 hours after thawing. ELISA displacement assays were performed on each sample as described in ‘Solid-phase binding assay’. Nb2 concentrations were determined at each time point by measuring absorbance a 280 nm using a nanodrop ND-1000 spectrophotometer.
(§2) Nb2 stability at 4° C. was tested by comparing the ability for nb2 to displace GPVI-Fc binding to a collagen surface after 0-, 24-, 48- and 72-hours storage at 4° C. (FIG. 8). Nb2 was stored in PBS with no added preservatives. In addition, samples of nb2 that were freeze-thawed and an additional sample that had been filtered were also tested. […] There was an observed reduction in protein concentration of approximately 3% when filtering but it is not abnormal for small losses in protein yield when filtering.

Experiment [3] deals with T2, recombinant GPVI-Fc (dimeric; D1 and D2 …). As to the kind of experiment: displacement of GPVI-Fc (100 nM) from collagen surface; Nb2 freeze-thawed, day 1. The procedure: as §1, §2
Experiment [4] has the same target. As to the kind of experiment: displacement of GPVI-Fc (100 nM) from collagen surface; Nb2 freeze-thawed, day 2. On the procedure:
as §1, §2

Experiment [5] shares this target. As to the kind of experiment: displacement of GPVI-Fc (100 nM) from collagen surface; Nb2 syringe-filtered, day 0. The procedure: as §1, §2
Experiment [6] shares this target. As to the kind of experiment: displacement of GPVI-Fc (100 nM) from collagen surface; Nb2 syringe-filtered, day 1. On the procedure: as §1, §2
Experiment [7] shares this target. Put plainly: displacement of GPVI-Fc (100 nM) from collagen surface; Nb2 syringe-filtered, day 2. On the procedure: as §1, §2
The target is the same in experiment [8]. As to the kind of experiment: displacement of GPVI-Fc (100 nM) from collagen surface; Nb2 syringe-filtered, day 3. The procedure:
as §1, §2

For experiment [9] the target is unchanged. Put plainly: displacement of GPVI-Fc (100 nM) from collagen surface; Nb2 stored at 4 °C, non-filtered, day 0. On the procedure:
as §1, §2

For experiment [10] the target is unchanged. Put plainly: displacement of GPVI-Fc (100 nM) from collagen surface; Nb2 stored at 4 °C, non-filtered, day 1. The procedure:
as §1, §2

The target is the same in experiment [11]. As to the kind of experiment: displacement of GPVI-Fc (100 nM) from collagen surface; Nb2 stored at 4 °C, non-filtered, day 2. The procedure:
as §1, §2

The target is the same in experiment [12]. As to the kind of experiment: displacement of GPVI-Fc (100 nM) from collagen surface; Nb2 stored at 4 °C, non-filtered, day 3. The procedure:
as §1, §2

In general, IC50 refers to the concentration that gives 50% inhibition.

B1: Nb28 fluorescently labelled with AlexaFluor 647 (Nb28-AF647) (VHH)
VHH: QVQLQESGGGLVQAGDSLRLSCAASGTYSMGWFRQAPGKEREFVAAISWSGGRTNYADSVKGRFTISRDNAKNTVYLQMNSLKPEDTAVYYCSAAIYDNVSSRIGSYTYWGQGTQVTVSS
modifications: AlexaFluor 647 dye on free amino groups (NHS-ester labelling)
notes: also called labelled Nb28
As for B1, the binding result in experiment [1] is given as “binds”.

B2: un-tagged Nb2 (thrombin-cleaved nanobody 2) (VHH)
VHH: QVQLQESGGGLVQPGGSLRLSCAAAGFTFDYYAIAWFRQAPGKEREGVSCISSSDGTTYYADSVKGRFTISKDNAKNTMYLQMNSLKPEDTAVYYCATSPLYSTNDRCISEDYDYWGQGTQVTVSS
notes: also called un-tagged nanobody 2
With B2, the IC50 in experiment [2] worked out at 46.5 nM; in [3] it was 29.8 nM; in [4] it was 44 nM; in experiment [5] it was 45.7 nM; in [6], 40.3 nM; in [7], 35.2 nM. Further, the IC50 in experiment [8] stood at 37.1 nM; in experiment [9] it was 37 nM; in experiment [10], 54.4 nM; in experiment [11], 34 nM; in experiment [12], 32.4 nM.

The record behind these values is US20240067721A1 (UNIVERSITY OF BIRMINGHAM, published 2024).
